In patent US20210388102A1 (IMMUNOGEN, published 2021):

Key:
[1] = molecular target: T1, cynomolgus monkey ADAM9 (cynoADAM9) on cells (cynomolgus monkey, UniProt Q13443 206-819 (human entry)); experiment: FACS, 300-19 cells expressing cynomolgus ADAM9
T1 construct: also called Cho-K/cynoADAM9 clone 2; Cho-K/cynoADAM9 clone #16
T1 chain: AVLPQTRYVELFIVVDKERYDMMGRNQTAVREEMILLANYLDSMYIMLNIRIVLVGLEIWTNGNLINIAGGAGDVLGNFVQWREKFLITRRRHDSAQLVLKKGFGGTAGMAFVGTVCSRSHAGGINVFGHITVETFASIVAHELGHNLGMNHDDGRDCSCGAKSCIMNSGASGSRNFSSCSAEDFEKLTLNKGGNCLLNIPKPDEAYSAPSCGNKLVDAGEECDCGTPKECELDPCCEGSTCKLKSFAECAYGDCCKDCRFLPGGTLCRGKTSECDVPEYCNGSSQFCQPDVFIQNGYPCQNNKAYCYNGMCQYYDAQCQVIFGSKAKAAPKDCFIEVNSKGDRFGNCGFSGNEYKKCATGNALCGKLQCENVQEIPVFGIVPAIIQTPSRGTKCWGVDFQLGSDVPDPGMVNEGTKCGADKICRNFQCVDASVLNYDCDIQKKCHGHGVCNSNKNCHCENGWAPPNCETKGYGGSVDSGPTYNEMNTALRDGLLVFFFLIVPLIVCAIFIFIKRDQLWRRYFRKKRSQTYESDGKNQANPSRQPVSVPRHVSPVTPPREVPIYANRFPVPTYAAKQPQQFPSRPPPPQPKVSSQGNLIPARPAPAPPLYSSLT
Procedure: (§1) To evaluate the consequence of conjugation on antigen binding, the relative binding affinity of each anti-ADAM9 immunoconjugate and its respective unconjugated antibody to ADAM9 was determined by FACS analysis on 300-19 cells ectopically-expressing either human ADAM9 or cynomolgus ADAM9. Briefly, the ADAM9-expressing 300-19 cells were incubated with dilution series of anti-ADAM9 antibodies or immunoconjugates for 30 min @ 4° C. in FACS buffer (PBS, 0.1% BSA, 0.01% NaN₃), Samples were then washed and incubated with fluorescently-labeled secondary antibody for 30 minutes at 4° C. The normalized mean of fluorescence intensity at each concentration was plotted and the EC50 of binding was calculated using a nonlinear regression analysis (GraphPad Prims 4.0).

[2] = molecular target: T1, cynomolgus monkey ADAM9 (cynoADAM9) on …; experiment: FACS, EC50 on 300-19 cynoADAM9 cells over EC50 on 300-19 huADAM9 cells
Procedure: as §1

[3] = molecular target: T2, human ADAM9 (huADAM9) on cells (human, UniProt Q13443 206-819); experiment: FACS, 300-19 cells expressing human ADAM9
T2 construct: The pro-domain is said to be cleaved (Arg-205/Ala-206) in the mature protein; also called Cho-K/huADAM9; Cho-K/hu ADAM9.2
T2 sequence: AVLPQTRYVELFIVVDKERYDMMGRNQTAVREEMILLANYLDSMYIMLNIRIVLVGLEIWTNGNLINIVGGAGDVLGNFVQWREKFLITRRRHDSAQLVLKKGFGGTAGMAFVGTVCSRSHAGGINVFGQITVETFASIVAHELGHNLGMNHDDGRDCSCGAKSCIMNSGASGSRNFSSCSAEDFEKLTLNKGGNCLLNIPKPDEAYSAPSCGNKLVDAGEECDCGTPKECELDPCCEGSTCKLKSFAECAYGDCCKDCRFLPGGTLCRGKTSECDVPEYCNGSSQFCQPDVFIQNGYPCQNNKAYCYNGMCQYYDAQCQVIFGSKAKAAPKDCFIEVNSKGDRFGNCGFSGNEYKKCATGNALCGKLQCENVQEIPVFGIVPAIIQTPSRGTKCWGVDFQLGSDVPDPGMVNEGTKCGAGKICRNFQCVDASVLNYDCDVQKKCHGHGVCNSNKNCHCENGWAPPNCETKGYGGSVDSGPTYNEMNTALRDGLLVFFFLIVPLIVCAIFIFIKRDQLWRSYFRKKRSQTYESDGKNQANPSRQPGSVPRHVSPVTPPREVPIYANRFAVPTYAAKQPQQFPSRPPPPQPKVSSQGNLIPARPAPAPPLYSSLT
Procedure: as §1

[4] = molecular target: T3, His-tagged soluble human ADAM9 (shADAM9-His) (human, UniProt Q13443 206-697); experiment: SPR (BIACORE), antibody captured, huADAM9-His in flow
T3 construct: Contains an extracellular portion of human ADAM9; also called huADAM9-His; His peptide-tagged soluble huADAM9
T3 sequence: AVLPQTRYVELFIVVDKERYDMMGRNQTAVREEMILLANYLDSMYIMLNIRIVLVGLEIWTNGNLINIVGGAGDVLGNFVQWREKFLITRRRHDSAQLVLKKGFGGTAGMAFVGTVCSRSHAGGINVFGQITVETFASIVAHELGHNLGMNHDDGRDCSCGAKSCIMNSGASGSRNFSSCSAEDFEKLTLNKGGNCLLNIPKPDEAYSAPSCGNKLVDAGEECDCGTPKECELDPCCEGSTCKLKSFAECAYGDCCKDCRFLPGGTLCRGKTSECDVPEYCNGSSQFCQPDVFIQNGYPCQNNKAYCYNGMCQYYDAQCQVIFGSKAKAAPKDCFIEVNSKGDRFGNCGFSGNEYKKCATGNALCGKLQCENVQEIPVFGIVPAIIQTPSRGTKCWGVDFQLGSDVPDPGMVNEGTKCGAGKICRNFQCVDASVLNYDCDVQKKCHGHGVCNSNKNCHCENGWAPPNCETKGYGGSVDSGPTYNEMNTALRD
Procedure: The kinetics of binding were determined via BIACORE® analysis binding (normalized 1:1 Langmuir binding model).

Binder | EC50 [1] | cyno/human (ratio of EC50) [2] | EC50 [3] | Kd [4] | koff [4] | kon [4]
chMAB-A-sSPDB-DM4 (antibody, V domains shown, lysine-linked DM4, sites not given; DM4 linked through sulfo-SPDB to lysine residues of the antibody, sites not given; average 3.4 mol DM4/mol antibody) VH: QVQLQQPGAELVKPGASVKLSCKASGYTFTSYWMHWVKQRPGQGLEWIGEIIPINGHTNYNEKFKSKATLTLDKSSSTAYMQLSSLASEDSAVYYCARGGYYYYGSRDYFDYWGQGTTLTVSS VL: DIVLTQSPASLAVSLGQRATISCKASQSVDYDGDSYMNWYQQIPGQPPKLLIYAASDLESGIPARFSGSGSGTDFTLNIHPVEEEDAATYYCQQSHEDPFTFGGGTKLEIK | 275 nM | 290 | 0.95 nM | – | – | –
chMAB-A-DGN549 (antibody, V domains shown, lysine-linked DGN549, sites not given; DGN549-L (compound D2) linked to lysine residues of the antibody, sites not given; average 2.7 mol DGN549/mol antibody) VH: QVQLQQPGAELVKPGASVKLSCKASGYTFTSYWMHWVKQRPGQGLEWIGEIIPINGHTNYNEKFKSKATLTLDKSSSTAYMQLSSLASEDSAVYYCARGGYYYYGSRDYFDYWGQGTTLTVSS VL: DIVLTQSPASLAVSLGQRATISCKASQSVDYDGDSYMNWYQQIPGQPPKLLIYAASDLESGIPARFSGSGSGTDFTLNIHPVEEEDAATYYCQQSHEDPFTFGGGTKLEIK | 153 nM | 123 | 1.24 nM | – | – | –
hMAB-A(2I.2)-DGN549 (antibody, human IgG1, kappa, lysine-linked DGN549, sites not given; DGN549-L (compound D2) linked to lysine residues of the antibody, sites not given; average 2.8 mol DGN549/mol antibody) heavy: not shown light: DIVMTQSPDSLAVSLGERATISCKASQSVDYSGDSYMNWYQQKPGQPPKLLIYAASDLESGIPARFSGSGSGTDFTLTISSLEPEDFATYYCQQSHEDPFTFGQGTKLEIKRTVAAPSVFIFPPSDEQLKSGTASVVCLLNNFYPREAKVQWKVDNALQSGNSQESVTEQDSKDSTYSLSSTLTLSKADYEKHKVYACEVTHQGLSSPVTKSFNRGEC | 6.6 nM | 3 | 2.25 nM | – | – | –
hMAB-A (2B.2) (antibody, V domains shown, also called MAB-A VH(2B); MAB-A VH(2B.2)) VH: EVQLVESGGGLVKPGGSLRLSCAASGFTFSSYWMHWVRQAPGKGLEWVGEIIPIFGHTNYNEKFKSRFTISLDNSKNTLYLQMGSLRAEDTAVYYCARGGYYYYIGKGVLDYWGQGTTVTVSS VL: DIVMTQSPDSLAVSLGERATISCKASQSVDYSGDSYMNWYQQKPGQPPKLLIYAASDLESGIPARFSGSGSGTDFTLTISSLEPEDFATYYCQQSHEDPFTFGQGTKLEIK | – | – | – | 0.6 nM | 0.00039 s⁻¹ | 610000 M⁻¹ s⁻¹
hMAB-A (2D.2) (antibody, V domains shown, also called MAB-A VH(2D); MAB-A VH(2D.2)) VH: EVQLVESGGGLVKPGGSLRLSCAASGFTFSSYWMHWVRQAPGKGLEWVGEIIPIFGHTNYNEKFKSRFTISLDNSKNTLYLQMGSLRAEDTAVYYCARGGYYYYTGKGVLDYWGQGTTVTVSS VL: DIVMTQSPDSLAVSLGERATISCKASQSVDYSGDSYMNWYQQKPGQPPKLLIYAASDLESGIPARFSGSGSGTDFTLTISSLEPEDFATYYCQQSHEDPFTFGQGTKLEIK | – | – | – | 0.8 nM | 0.00058 s⁻¹ | 690000 M⁻¹ s⁻¹
